The values below come from patent publication US20080187530A1.

For the assay, the target named is formyl peptide receptor-like 1 (FPRL1) (human) (UniProt P25090). The experiment in a line: cell-based or functional assay.
Sequence of UniProt P25090 (P25090 whole entry): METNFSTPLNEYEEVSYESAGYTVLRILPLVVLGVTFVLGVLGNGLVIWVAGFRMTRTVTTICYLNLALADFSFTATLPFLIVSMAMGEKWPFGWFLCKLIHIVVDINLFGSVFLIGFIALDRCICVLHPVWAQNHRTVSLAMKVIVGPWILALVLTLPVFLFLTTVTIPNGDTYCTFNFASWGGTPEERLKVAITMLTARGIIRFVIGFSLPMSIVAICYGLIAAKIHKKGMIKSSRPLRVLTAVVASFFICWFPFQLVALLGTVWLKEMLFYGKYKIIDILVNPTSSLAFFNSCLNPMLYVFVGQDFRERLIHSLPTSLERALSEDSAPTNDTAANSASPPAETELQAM

Regarding “LL-37 peptide (from UniProt P49913 134-170)”, the decrease in proliferation of HaCaT cells treated with LL-37 after pretreatment with pertussis toxin is 50%.
